Test results taken from patent publication US20240026407A1, “MODIFICATION OF SAPONINS” (GLAXOSMITHKLINE BIOLOGICALS SA, priority 2020, published 2024).

B1: 1017 (protein, listed as Kribbella flavida)
chain: MSFPAAPARLRFEHRTDPGPVLGIGTATPRLSWQVPTAPDDYRQAGYEVEIARGDAAPEQYTVDSADQVLVPWPGTPLAARESATVRVRVRGDGDWSQWSDPATVEAGLLSADDWTARFVSPRENAGHEAPAPLIGGVIDLPADIAQARLYATAHGIYEPTLNGTRVGDEQLAPGWTAYEQRLRYQTYDVTDLVAPGENRLELLVGNGWYRGRLGFHGKHSLYGDRLAVLAQLEVTTATGEVKVLASDGTWTTRETNVLADDLYDGQHVDLRRTLGEPGPVDVLDADLSLLVAPDGPPVRVTDVLPAKAVTTSPAGKTLVDFGQNVVGRLRLRVRGGAAGDEIVLRHAEVLEDGELGVRPLRTAKATDSFVLAGPDEVTLEPTLTFHGFRYAEITGVPDLRAEDVEAVVVGSDLRRTGWFESSHPLLDRFHENVVWGMRGNFLDVPTDCPQRDERLGWTGDIQVFSPTASFLFDTAGFLTNWLADLIAEQHKDGSVPFVVPDVLRQPGPATAAWGDAATIVPWVLYERTGDAGLLARQLPSMRAWVDRMAGLAGDDLLWVGGFQFGDWLDPTAPPDDPFRAKADPDVLATAHLARSAEVVALAAEVVGAGELAREYAELAARVRQAFAAEYTTGSGRVLSDAATNYALALQWALLPTEAQRKRAGERLADLVRTAGFRISTGFVGTPLMADALADSGHPDLAYRLLLETGCPSWLYAVTMDATTVWERWDSMLPDGSINPGQMTSFNHYALGAVADWMHRRVAGLAPGDPGYRRIVVDPLFTAHLTKASARHLTPYGEAAVAWSRSGGRVRLEVTVPVGARARVAVPGESAPVEVGHGTHEWTADDVYGETPPLPADATIRQLIDHEPSWTTLAAAATRTGIVADDAELAGRLERYLDHPATELVDAVSPRGFSPSAEALQAELDSVLGR
B2: 1073 (protein, listed as Streptomyces scabiei)
chain: MSHERATAEGTSAAARTAHRPHESPVHGLTVEHRTDPLGVDADRPRFGWRTRSASRGWRQGSYQILVATSPELLTPASADVWDSGRVRSADSVAVRYAGVPLRASTRYHWTVRVWNTEGRAAGTASPAVFETGLMSTDGVGGWDGARWIGMKGKVPGSPGAPLLRTRETLGCGDGRTVGDARLYISALGVYEAHVNGERVTVRQDGERTLELLPPGWTNYDARVDYLTYDVTVLLADGPEVTLAVVLGNGWYNGRVSEGSTYHTQSGNALAVKAKLLIRYTDGTTRSVVTGTSGGWKATDTGPFRADDLYDGQTYDARRELPGWTAPGFDDTAWSDVEHIAFEDRYPGVRLRAYPGESARFVDRWDRRPQSVTVITGVTGQDGSPHGRGRVVVDPARTVTDPAKAATAQVTLAAGETAVFDLGQNMVGVPRYGVRGPAGARVEFRFAEILNDDSAGADGPEGSLYRANLRSAKATSTYILKGDPEGETHQDSLTFYGFRHVSVTASETVTVTGLTGRVATSAVRETGTVTTNDPHVDKLASNIRWGQRGNYLWVPTDCPQRDERLGWTGDTQVFAVTGLYNADAYTFLSHFQDTVVDSQAIYGADGAQYTGVAPGGRYNFPGGGSGWADCGVVLPWTLWQMTGDTTVVEDNWPSMVRYLDWIRRQTGDTYAGQGSLTGDWLAPQKTSAQLMSDAYYGYSAHLMARMARAIGRAEEAATYERLFGRIRQAFIARYLSTEGGRVTVRSGLGDASPIEPGSDPNEKTEDNSQSALLWVLKLGFYENEAQRRALVALLADDIRNDAAHKEAHPDSVRVRYPENTLSVGFLGVNILAPVLTDEGRADLAYELLHQDALPSWLFSVKNGATTVWERWNSWAEDAGFGPVGMNSFNHYAYGAIMEWMYAYMAGIARDPDAPGFKRFLLQPHLDPTGRITRVRATHESPYGEILSAWEVGSGGRRLAYDVAVPANSEATLRVPAVSADSVREGGTPLADVAGVRFLGHTEGVSSYLLPSGRYRLSADLR
B3: 1052 (protein, listed as Microbacterium testaceum)
chain: MTTDTRVAAVKAELRTDSPFVATPTPRLTWRVETSTPSWRQASAEITDGATSVPLEGAESALVAWPFAPLEPGERREVRVRVTGVDGAVTAWSAPLAVEAGFLAPDEWVAEPIGLADPEREAQPALVQTAFRLDRPVRRALLLWTALGSAEPEINGRAVSDDVLAPGWSATRDRLVHETVDVTDLLVEGDNVVGATLAGAWYTERYGFFTFTDRIYGDQPAFLAQLRVTFADGTVETVAPTGSAWTATGDAEIVTSGIYAGEHQDLRLRAPWSTPDATTSGTDRRWAPARVGVVARPGHENVPLPEARIAEPVRRHESLPVVARLATPSGGEVLDFGQNLVGRLRLRVRGEAGTTVTIRHAEVLDEGELALRPLRNAKAEASFVLSGGDDVLESRFSFYGFRYAQITGIDVTDAQVEAVVLHSDMERTGWFTSSHALVNRLHENVVWGMRGNFLALPTDCPQRDERLGWTGDLQVFAPTASFLYDCDGFLTSWLRDLALEQERAGGIVPLVIPAALPSFAGGGPVAAWGDAAAVTPTVLHERFGDIGVLAAQYPSMRAWVEAVRADAGDSGLWAGRMQLGDWLDPSAPPDQPGKAKVDGDIVATAYFARSLRQVAEAAALLENTADAETYHALAERSRRAFVSEYVTPAGRMMSDAPTAYALALAFDLVQDAPTRAALADRLAALVRESGYRISTGFVGTPIIADALSDGGHHDAAERLLLQTQCPSWLYPVTQGATTVWERWDSLLPDGSVNPGEMTSFNHYALGAVADWLHRTVAGLAPAAPGYRRLRVAPRPLAAFEHASARHLTAYGPAEVSWEREPGSDVVRVRAIVPPNTTAEVALPGTLADGSEAPAEVGSGTHEWRVTLPAVPVRPPLPGLEAMLADVIDDPRAYAALLDALEETAPERVEGVRSGTVWGAGRPLASALMFTPPDVLARVDRAVRDATA
B4: 990 (protein, listed as Streptomyces bingchenggensis)
chain: MISRRNLLGTATAAGPALTGLTALAATTGKAEAAEPGYGGLRVEKTTVEYADRPLGLDAPHPRLSWQLGSDRRNQSQSAYQLRVATSPGRIGAPDVWDSGKVSSHQSVLVPYDGPKLRARTRYHWAVRVWDGQGRPSPWSEPTWWETGLGTEDEGAARWVAAPDTVTRGPDLAKADWVWYPEGDPASSAPAGTRYFRGSLDVSGSVRLARLALVADDGFTAWVNGTEIGGRAPVQENWRHPVVVDVTALLREGANTIAVAAVNASSSPAGLLGVLELTDTDGVRSLTTSAAWKATDTEPSGDWHLPAYDDGGWAAAKVLAPWGGGPWGRVRAAQRPALVRRDFRLAAKPVARARLYSTALGLYEAEINGHRVGRDQLAPGWTDYRKRVQYQTYDVTDLLRHGANAIGVILASGWYSGSVAWFGQELYGERPALRAELEVTYADGSTDRVTADTHWRCATGPILTADLMAGEEYDARLEVSGWSSPAFDDSLWQSVDVVPADTTSAVSVVAQTDAPVRVARELAAVRVTEPKPGVYVFDLGQNMVGSVRLRVRGEAGRTVRLRHAEVLDKDGMLYTANLRTAQATDSYTLKGSGTETFEPRFTFHGFRYVEVTGYPGTPDTKSVTGRVMHTGAPFTMSFTTDVPMLDQLHRNITWGQRGNFLSVPTDTPARDERLGWTGDINVFSATAAYTMESARFLAKWLRDLRDGQSDAGAFPDVAPRIGNLGEGTAGWGDAGVTVPWNLYQAYGDRQILADNFPAMRAWITYLEQHSSGCLRPAEGYGDWLNVADETPKDVIATAYFAHSTQLVAKAARVLGHDPAPYDTLAAKVREAFNRAYVSADGTVKGNTQTAYVLALSMDLLPDSARTPAAERLVELIRSKDRHLSTGFLGTPRLLPTLTATGHTDVAYQLLEQRTFPSWGYQIDRGSTTMWERWDSLRPDGSFQDPGMNSFNHYAYGSVGEWMYQNITGIGMGEPGFRSIVIRPRPGGDVHEANGRYDSLYGPITTRWTRANDGAFTLDVSVPVNTTAEVWLPAATSRAASGISHAGATFLRLDDGCAVYGVGSGPYRFTAP

Tests used:
Type in all cases: biochemical, Quillaja saponaria
[1] = Experiment 6-1: screening of rhamnosidases for derhamnosylation of saponins in treated bark extract (2%), QS-17 2296 to QS-18 2150 (PAR %); settings: TBE 2%, pH 7.5, 30 degC, 18 h; TIC peak area ratio percent of rhamnosylated starting saponin to derhamnosylated product, LCMS/MS; negative controls 4.876, 5.225
[2] = Experiment 6-1: screening of rhamnosidases for derhamnosylation of saponins in treated bark extract (2%), desglucosyl-QS-17 2134 to QS-21 1988 (PAR %); settings: TBE 2%, pH 7.5, 30 degC, 18 h; TIC peak area ratio percent, LCMS/MS; negative controls 2.719, 2.158
[3] = Experiment 6-1: screening of rhamnosidases for derhamnosylation of saponins in treated bark extract (2%), QS-17 2310 to QS-18 2164 (PAR %); settings: TBE 2%, pH 7.5, 30 degC, 18 h; TIC peak area ratio percent, LCMS/MS; negative controls 3.061, 2.429
[4] = Experiment 6-2: screening of rhamnosidases for derhamnosylation of saponins in treated bark extract (25%), relative % of Left, Middle and Right Peak by UV HPLC; settings: TBE 25%, pH 7.4, 19.5 h; for Left Peak: mainly QS-17 family, negative control 24%; for Middle Peak: mainly QS-18 and desglucosyl-QS-17 family, negative control 50%; for Right Peak: mainly QS-21 family, negative control 26%
[5] = Experiment 6-3: screening of rhamnosidases for derhamnosylation of saponins in crude bark extract (80%), relative % of Left, Middle and Right Peak by UV HPLC; settings: CBE 80%, pH 7.4, 30 degC, 19.5 h; for Left Peak: mainly QS-17 family, negative control 27%; for Middle Peak: mainly QS-18 and desglucosyl-QS-17 family, negative control 48%; for Right Peak: mainly QS-21 family, negative control 26%
Method in brief: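 Clarified lysates of expressed rhamnosidase variants were incubated with crude bark extract (pH 7.4, final 80%) at 30 degC with shaking for 19.5 h, then quenched with MeCN+2% AcOH. UV HPLC gave relative % of Left (QS-17), Middle (QS-18/desglucosyl-QS-17) and Right (QS-21) peaks.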

[6] = Experiment 6-1: specificity of rhamnosidases towards other rhamnose residues (C3 saccharide rhamnose, C28 saccharide rhamnose); settings: TBE 2%, pH 7.5, 30 degC, 18 h; LCMS/MS; negative controls 0.18, 0.17

| Molecule | QS-17 (PAR %) [1] | Peak75 (PAR %) [2] | Peak57 (PAR %) [3] | Left Peak [4] | Middle Peak [4] | Right Peak [4] | Left Peak [5] | Middle Peak [5] | Right Peak [5] | ratio PP/QS-21 [6] |
| --- | --- | --- | --- | --- | --- | --- | --- | --- | --- | --- |
| B1 | 0.017% | 0.000% | 0.004% | 6% | 63% | 31% | 17% | 56% | 27% | 0.19 |
| B2 | 0.007% | 0.000% | 0.000% | 6% | 62% | 31% | 20% | 52% | 28% | 0.18 |
| B3 | 0.000% | 0.000% | 0.000% | 9% | 62% | 30% | 25% | 49% | 27% | 0.16 |
| B4 | 5.144% | 2.151% | 0.188% | 23% | 51% | 26% | 25% | 47% | 28% | 0.21 |
